Tests used:
GST-hnRNPA1 [1] = target: T1, GST-hnRNPA1 (UniProt P09651 1-372); test: EMSA; 50 mM KCl; bound at 1:1 ratio; EMSA: 50 mM Tris-HCl pH 7.4, 50 mM KCl, 1 mM EDTA, 1 mM Na3VO4, 5 mM NaF, 1 mM DTT, 8% glycerol, 25 C, 30 nM RNA; ITC: 10 mM KPi, 50 mM KCl, 25 C, 8 uM UP1; settings: protein: recombinant; tags: GST (N-terminal, pGEX4T1); label: Cy5.5 5'; rG4
GST-hnRNPA1 [2] = target: T1, GST-hnRNPA1; test: EMSA; 10-fold molar excess of protein; EMSA: 50 mM Tris-HCl pH 7.4, 50 mM KCl, 1 mM EDTA, 1 mM Na3VO4, 5 mM NaF, 1 mM DTT, 8% glycerol, 25 C, 30 nM RNA; ITC: 10 mM KPi, 50 mM KCl, 25 C, 8 uM UP1; settings: protein: recombinant; tags: GST (N-terminal, pGEX4T1); unable to form rG4
UP1 = UP1 (UniProt P09651 1-196); test: ITC; 50 mM KCl; one-site fit, Kd not in material; EMSA: 50 mM Tris-HCl pH 7.4, 50 mM KCl, 1 mM EDTA, 1 mM Na3VO4, 5 mM NaF, 1 mM DTT, 8% glycerol, 25 C, 30 nM RNA; ITC: 10 mM KPi, 50 mM KCl, 25 C, 8 uM UP1; settings: protein: recombinant; tags: none (GST removed by PreScission); rG4, two stacked G-tetrads
Chain of UP1 (P09651 1-196): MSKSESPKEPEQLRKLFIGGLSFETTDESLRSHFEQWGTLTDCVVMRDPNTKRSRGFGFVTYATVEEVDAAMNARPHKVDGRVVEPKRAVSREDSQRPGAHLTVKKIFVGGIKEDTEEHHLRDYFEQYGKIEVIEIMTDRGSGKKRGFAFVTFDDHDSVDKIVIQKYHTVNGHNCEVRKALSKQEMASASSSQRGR

T1 sequence (P09651 whole entry): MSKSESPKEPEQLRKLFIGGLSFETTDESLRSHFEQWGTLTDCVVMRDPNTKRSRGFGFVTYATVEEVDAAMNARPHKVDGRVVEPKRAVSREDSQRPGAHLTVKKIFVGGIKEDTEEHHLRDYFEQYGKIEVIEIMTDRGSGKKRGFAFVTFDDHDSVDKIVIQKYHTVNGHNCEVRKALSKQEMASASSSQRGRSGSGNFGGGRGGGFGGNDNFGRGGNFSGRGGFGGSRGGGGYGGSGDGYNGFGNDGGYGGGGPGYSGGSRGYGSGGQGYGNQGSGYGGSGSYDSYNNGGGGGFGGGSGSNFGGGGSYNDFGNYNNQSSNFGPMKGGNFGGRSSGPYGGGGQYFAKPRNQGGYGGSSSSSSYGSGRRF

B1: 41-mer 5'UTR (utr-c + utr-z) (structured_RNA)
RNA: GCAGCGGCGGCGGCAGUGGCGGCGGCGAAGGUGGCGGCGGC
B1: binds (GST-hnRNPA1 [1]).

B2: 41-mer 5'UTRmut (ssRNA)
RNA: GCAGCGCCAGCCGCAGUCGCGUCCGCGAACGUAGCCGCCGC
B2: no binding (GST-hnRNPA1 [2]).

B3: utr-c (structured_RNA)
RNA: GGUGGCGGCGG
B3: binds (UP1).
